From patent US20230143604A1, “QW DOSING OF GIP RECEPTOR AGONIST PEPTIDE COMPOUNDS AND USES THEREOF” (TAKEDA PHARMACEUTICAL COMPANY LIMITED, priority 2020, published 2023)
Starred links: 1 amine or outer side, 2 acyl side, 3 side chain; linkers in the order of their positions; H or OH if unused. Non-standard residues stand in square brackets, D forms with d. Groups on a side chain read outwards from the residue. No end group written: not given here. *: point of attachment. C20 diacid = O=C(O)CCCCCCCCCCCCCCCCCCC(=O)*; C18 diacid = O=C(O)CCCCCCCCCCCCCCCCC(=O)*; C17 diacid = O=C(O)CCCCCCCCCCCCCCCC(=O)*; γGlu = O=C(O)[C@H](CCC(=O)[*:2])N[*:1]; NMeY = CN[C@@H](Cc1ccc(O)cc1)C(=O)O; AEEA = NCCOCCOCC(=O)O; Aib = CC(C)(N)C(=O)O

Experiments:
[1] = molecular target: T1, full-length human GIPR with an N-terminal FLAG tag (human, UniProt P48546 22-466); assay: cell-based or functional assay
T1 sequence (looked up): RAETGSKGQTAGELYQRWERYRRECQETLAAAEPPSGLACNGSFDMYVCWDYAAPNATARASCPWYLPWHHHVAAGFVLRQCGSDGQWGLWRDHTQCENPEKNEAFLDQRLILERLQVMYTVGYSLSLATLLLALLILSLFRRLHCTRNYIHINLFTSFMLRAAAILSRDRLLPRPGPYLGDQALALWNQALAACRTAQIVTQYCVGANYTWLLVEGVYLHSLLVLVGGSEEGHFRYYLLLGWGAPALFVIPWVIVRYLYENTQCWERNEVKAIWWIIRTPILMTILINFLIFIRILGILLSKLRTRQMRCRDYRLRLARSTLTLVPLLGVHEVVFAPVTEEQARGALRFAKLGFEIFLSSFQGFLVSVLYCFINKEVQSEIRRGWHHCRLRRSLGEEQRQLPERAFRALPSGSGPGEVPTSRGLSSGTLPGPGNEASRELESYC

[2] = molecular target: full-length human GLP-1R with an N-terminal FLAG tag (human, UniProt P43220 24-463); assay: cell-based or functional assay

[NMeY][Aib]EGTFISDYSI[Aib]LDR[Aib]K([AEEA-AEEA-γGlu-γGlu-C18 diacid])A[Aib]NFVNWLLAQSPSSGAPPPS-NH2 [Compound No. 109]
Human GIPR cAMP EC50, HEK293T [1]: 0.0004 nM
Human GLP1R cAMP EC50, HEK293T [2]: 204 nM

[NMeY][Aib]EGTFISDYSIALDR[Aib]AQ[Aib]K([GGPAPAP-C18 diacid])FVNWLLAQSPSSGAPPPS-OH [Compound No. 103]
Human GIPR cAMP EC50, HEK293T [1]: 0.0017 nM
Human GLP1R cAMP EC50, HEK293T [2]: 29.5 nM

[NMeY][Aib]EGTFISDYSI[Aib]LDR[Aib]AQ[Aib]K([AEEA-AEEA-γGlu-γGlu-C20 diacid])FVNWLLAQRPSSGAPPPS-NH2 [Compound No. 101]
Human GIPR cAMP EC50, HEK293T [1]: 0.0009 nM
Human GLP1R cAMP EC50, HEK293T [2]: 39.8 nM

[NMeY][Aib]EGTFISDYSIAK([GGPAPAP-C18 diacid])DR[Aib]AQ[Aib]DFVNWLLAQSPSSGAPPPS-OH [Compound No. 105]
Human GIPR cAMP EC50, HEK293T [1]: 0.0005 nM
Human GLP1R cAMP EC50, HEK293T [2]: 562 nM

[NMeY][Aib]EGTFISDYSI[Aib]LDR[Aib]AA[Aib]K([AEEA-AEEA-γGlu-γGlu-C18 diacid])FVNWLLAQSPSSGAPPPS-NH2 [Compound No. 107]
Human GIPR cAMP EC50, HEK293T [1]: 0.0004 nM
Human GLP1R cAMP EC50, HEK293T [2]: 45.7 nM

[NMeY][Aib]EGTFISDYSIALDR[Aib]K([AEEA-AEEA-γGlu-γGlu-C20 diacid])Q[Aib]NFVNWLLAQSPSSGAPPPS-NH2 [Compound No. 99]
Human GIPR cAMP EC50, HEK293T [1]: 0.0005 nM
Human GLP1R cAMP EC50, HEK293T [2]: 479 nM

[NMeY][Aib]EGTFISDYSI[Aib]LDR[Aib]AQ[Aib]K([AEEA-γGlu-AEEA-γGlu-C18 diacid])FVNWLLAQSPSSGAPPPS-NH2 [Compound No. 92]
Human GIPR cAMP EC50, HEK293T [1]: 0.0006 nM
Human GLP1R cAMP EC50, HEK293T [2]: 36.3 nM

B1: Compound No. 10 (peptide)
peptide: [NMeY][Aib]EGTFISDYSIAK([AEEA-AEEA-γGlu-C17 diacid])DR[Aib]AQ[Aib]NFVNWLLAQS-OH
modifications: N-terminus assumed
SMILES: CC[C@H](C)[C@H](NC(=O)[C@H](CO)NC(=O)[C@H](Cc1ccc(O)cc1)NC(=O)[C@H](CC(=O)O)NC(=O)[C@H](CO)NC(=O)[C@@H](NC(=O)[C@H](Cc1ccccc1)NC(=O)[C@@H](NC(=O)CNC(=O)[C@H](CCC(=O)O)NC(=O)C(C)(C)NC(=O)[C@H](Cc1ccc(O)cc1)NC)[C@@H](C)O)[C@@H](C)CC)C(=O)N[C@@H](C)C(=O)N[C@@H](CCCCNC(=O)COCCOCCNC(=O)COCCOCCNC(=O)CC[C@H](NC(=O)CCCCCCCCCCCCCCCC(=O)O)C(=O)O)C(=O)N[C@@H](CC(=O)O)C(=O)N[C@@H](CCCNC(=N)N)C(=O)NC(C)(C)C(=O)N[C@@H](C)C(=O)N[C@@H](CCC(N)=O)C(=O)NC(C)(C)C(=O)N[C@@H](CC(N)=O)C(=O)N[C@@H](Cc1ccccc1)C(=O)N[C@H](C(=O)N[C@@H](CC(N)=O)C(=O)N[C@@H](Cc1c[nH]c2ccccc12)C(=O)N[C@@H](CC(C)C)C(=O)N[C@@H](CC(C)C)C(=O)N[C@@H](C)C(=O)N[C@@H](CCC(N)=O)C(=O)N[C@@H](CO)C(=O)O)C(C)C
Human GIPR cAMP EC50, HEK293T [1]: 0.0002 nM
Human GLP1R cAMP EC50, HEK293T [2]: 37.2 nM

[NMeY][Aib]EGTFISDYSI[Aib]LDR[Aib]AA[Aib]K([AEEA-AEEA-γGlu-γGlu-C18 diacid])FVNWLLAQRPSSGAPPPS-NH2 [Compound No. 106]
Human GIPR cAMP EC50, HEK293T [1]: 0.0004 nM
Human GLP1R cAMP EC50, HEK293T [2]: 12 nM

[NMeY][Aib]EGTFISDYSIALDR[Aib]AQ[Aib]K([2OEGgEgE-C17 diacid])FVNWLLAQR-OH [Compound No. 9]
Human GIPR cAMP EC50, HEK293T [1]: 0.0004 nM
Human GLP1R cAMP EC50, HEK293T [2]: 7.94 nM

[NMeY][Aib]EGTFISDYSI[Aib]LDR[Aib]AQ[Aib]K([AEEA-AEEA-γGlu-γGlu-C17 diacid])FVNWLLAQSPSSGAPPPS-NH2 [Compound No. 94]
Human GIPR cAMP EC50, HEK293T [1]: 0.0006 nM
Human GLP1R cAMP EC50, HEK293T [2]: 63.1 nM

[NMeY][Aib]EGTFISDYSI[Aib]LDR[Aib]AQ[Aib]K([AEEA-γGlu-γGlu-C18 diacid])FVNWLLAQSPSSGAPPPS-NH2 [Compound No. 93]
Human GIPR cAMP EC50, HEK293T [1]: 0.0006 nM
Human GLP1R cAMP EC50, HEK293T [2]: 29.5 nM

YXEGTFISDYSIXLDRXAQXDFVNWLLAQSPG (N-methyl Tyr 1; Aib at 2,13,20; Lys(G5-C18 diacid) at 17; C-terminal OH) [Compound No. 88]
Human GIPR cAMP EC50, HEK293T [1]: 0.0004 nM
Human GLP1R cAMP EC50, HEK293T [2]: 13.5 nM

[NMeY][Aib]EGTFISDYSI[Aib]LDR[Aib]AQ[Aib]K([2OEGgEgE-C18 diacid])FVNWLLAQSPSSGAPPPS-NH2 [Compound No. 90]
Human GIPR cAMP EC50, HEK293T [1]: 0.0005 nM
Human GLP1R cAMP EC50, HEK293T [2]: 72.4 nM

[NMeY][Aib]EGTFISDYSIALDR[Aib]AQ[Aib]K([GGPAPAP-γGlu-C18 diacid])FVNWLLAQSPSSGAPPPS-OH [Compound No. 104]
Human GIPR cAMP EC50, HEK293T [1]: 0.0005 nM
Human GLP1R cAMP EC50, HEK293T [2]: 66.1 nM

[NMeY][Aib]EGTFISDYSI[Aib]LDR[Aib]AQ[Aib]K([2OEGgEgE-C18 diacid])FVNWLLAQSPG-OH [Compound No. 85]
Human GIPR cAMP EC50, HEK293T [1]: 0.0004 nM
Human GLP1R cAMP EC50, HEK293T [2]: 41.7 nM

[NMeY][Aib]EGTFISDYSIALDR[Aib]AQ[Aib]K([AEEA-AEEA-γGlu-γGlu-C18 diacid])FVNWLLAQSPSSGAPPPS-NH2 [Compound No. 97]
Human GIPR cAMP EC50, HEK293T [1]: 0.0006 nM
Human GLP1R cAMP EC50, HEK293T [2]: 52.5 nM

[NMeY][Aib]EGTFISDYSI[Aib]LDR[Aib]K([2OEGgEgE-C18 diacid])Q[Aib]DFVNWLLAQSPG-OH [Compound No. 87]
Human GIPR cAMP EC50, HEK293T [1]: 0.0004 nM
Human GLP1R cAMP EC50, HEK293T [2]: > 1000 nM

YXEGTFISDYSIXXDRXAQXNFVNWLLAQSPSSGAPPPS (N-methyl Tyr 1; Aib at 2,13,17,20; Lys(G5-C17 diacid) at 14; C-terminal OH) [Compound No. 95]
Human GIPR cAMP EC50, HEK293T [1]: 0.0004 nM
Human GLP1R cAMP EC50, HEK293T [2]: 17.4 nM

YXEGTFISDYSIXXDRXAQXNFVNWLLAQSPSSGAPPPS (N-methyl Tyr 1; Aib at 2,13,17,20; Lys(G5-C18 diacid) at 14; C-terminal OH) [Compound No. 96]
Human GIPR cAMP EC50, HEK293T [1]: 0.0003 nM
Human GLP1R cAMP EC50, HEK293T [2]: 9.55 nM

[NMeY][Aib]EGTFISDYSIALDR[Aib]AQ[Aib]K([2OEGgEgE-C18 diacid])FVNWLLAQSPG-OH [Compound No. 86]
Human GIPR cAMP EC50, HEK293T [1]: 0.0003 nM
Human GLP1R cAMP EC50, HEK293T [2]: 58.9 nM

YXEGTFISDYSIXXDRXAQXDFVEWLLAQRG (N-methyl Tyr 1; Aib at 2,13,17,20; Lys(G5-C18 diacid) at 14; C-terminal OH) [Compound No. 108]
Human GIPR cAMP EC50, HEK293T [1]: 0.0002 nM
Human GLP1R cAMP EC50, HEK293T [2]: 41.7 nM

[NMeY][Aib]EGTFISDYSIALDR[Aib]K([GGPAPAP-C18 diacid])Q[Aib]DFVNWLLAQSPSSGAPPPS-OH [Compound No. 102]
Human GIPR cAMP EC50, HEK293T [1]: 0.0005 nM
Human GLP1R cAMP EC50, HEK293T [2]: 117 nM

[NMeY][Aib]EGTFISDYSI[Aib]LDR[Aib]AQ[Aib]K([AEEA-AEEA-γGlu-C18 diacid])FVNWLLAQSPSSGAPPPS-NH2 [Compound No. 91]
Human GIPR cAMP EC50, HEK293T [1]: 0.0005 nM
Human GLP1R cAMP EC50, HEK293T [2]: 30.9 nM

[NMeY][Aib]EGTFISDYSI[Aib]LDR[Aib]K([AEEA-AEEA-γGlu-γGlu-C18 diacid])Q[Aib]NFVNWLLAQSPSSGAPPPS-NH2 [Compound No. 100]
Human GIPR cAMP EC50, HEK293T [1]: 0.0006 nM
Human GLP1R cAMP EC50, HEK293T [2]: > 1000 nM

[NMeY][Aib]EGTFISDYSI[Aib]LDR[Aib]AQ[Aib]K([2OEGgEgE-C18 diacid])FVNWLLAQRPSSGAPPPS-NH2 [Compound No. 89]
Human GIPR cAMP EC50, HEK293T [1]: 0.0004 nM
Human GLP1R cAMP EC50, HEK293T [2]: 42.7 nM
